We go through 2 substances from paper PMC2855763.

Test [1] has as its target dVFP (VFP T160A) (Cyphastrea microphthalma). The experiment in a line: SEC. (In general: In gel filtration, larger molecules generally elute earlier.)
Test [2] addresses VFP (vivid Verde fluorescent protein) (Cyphastrea microphthalma). The experiment in a line: SEC.

For the substance dVFP (VFP T160A) (natural protein), the stoichiometry N in test [1] worked out at 2.
As to “VFP (vivid Verde fluorescent protein) (natural protein)”, in test [2], the stoichiometry N was 2.

For orientation: stoichiometry N means a count of units in the complex or per binding partner.
